Measurements: paper PMC3413117 (Nucleic Acids Research, 2012)

T1: LiBRCA2 (Leishmania infantum, UniProt A4HYJ9 1-1165)
T1 sequence: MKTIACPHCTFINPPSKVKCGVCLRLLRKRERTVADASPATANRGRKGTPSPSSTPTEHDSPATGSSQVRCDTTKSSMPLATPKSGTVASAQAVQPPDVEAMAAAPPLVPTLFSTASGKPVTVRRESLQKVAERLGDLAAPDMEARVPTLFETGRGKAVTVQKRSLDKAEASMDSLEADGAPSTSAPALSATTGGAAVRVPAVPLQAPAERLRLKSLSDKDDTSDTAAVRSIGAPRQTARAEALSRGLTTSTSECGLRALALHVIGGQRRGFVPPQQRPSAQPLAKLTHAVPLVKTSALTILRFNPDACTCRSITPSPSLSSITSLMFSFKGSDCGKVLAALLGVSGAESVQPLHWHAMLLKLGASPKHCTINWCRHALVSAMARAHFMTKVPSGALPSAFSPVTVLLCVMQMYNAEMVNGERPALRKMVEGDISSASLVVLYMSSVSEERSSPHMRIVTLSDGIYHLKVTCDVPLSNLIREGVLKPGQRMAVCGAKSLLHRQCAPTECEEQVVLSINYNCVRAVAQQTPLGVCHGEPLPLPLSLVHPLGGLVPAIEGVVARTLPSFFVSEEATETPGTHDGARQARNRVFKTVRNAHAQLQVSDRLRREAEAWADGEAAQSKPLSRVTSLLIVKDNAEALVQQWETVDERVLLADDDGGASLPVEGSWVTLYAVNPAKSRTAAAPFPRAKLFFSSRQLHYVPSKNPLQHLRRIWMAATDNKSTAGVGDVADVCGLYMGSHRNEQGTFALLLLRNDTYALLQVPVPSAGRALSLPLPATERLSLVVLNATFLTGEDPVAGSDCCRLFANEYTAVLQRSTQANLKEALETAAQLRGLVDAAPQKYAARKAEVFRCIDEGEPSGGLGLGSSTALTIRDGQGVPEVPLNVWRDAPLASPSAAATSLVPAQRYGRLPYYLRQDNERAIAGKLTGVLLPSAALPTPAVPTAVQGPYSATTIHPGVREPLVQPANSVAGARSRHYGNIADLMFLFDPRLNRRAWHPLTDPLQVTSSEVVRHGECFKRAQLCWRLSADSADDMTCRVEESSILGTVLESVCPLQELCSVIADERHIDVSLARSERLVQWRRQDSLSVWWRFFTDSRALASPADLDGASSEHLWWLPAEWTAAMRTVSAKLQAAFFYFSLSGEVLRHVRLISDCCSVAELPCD

T2: LiBRCA2-B1 (Leishmania infantum, UniProt A4HYJ9 1-122)
T2 sequence: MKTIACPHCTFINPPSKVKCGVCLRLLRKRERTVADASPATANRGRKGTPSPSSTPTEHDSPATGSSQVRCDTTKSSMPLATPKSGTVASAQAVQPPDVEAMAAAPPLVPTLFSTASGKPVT

B1: Leishmania infantum BRCA2, purified LiBRCA2-His (GST tag cleaved) (natural protein)
chain: T1 sequence
B2: 60-mer ssDNA (JYM925) (ssDNA)
DNA: GGGTGAACCTGCAGGTGGGCAAAGATGTCCTAGCAATGTAATCGTCAAGCTTTATGCCGT
B3: 60-mer dsDNA (JYM925/JYM945) (dsDNA)
DNA 1: B2 DNA
DNA 2: ACGGCATAAAGCTTGACGATTACATTGCTAGGACATCTTTGCCCACCTGCAGGTTCACCC
B4: Leishmania infantum RAD51, purified (GST tag cleaved) (natural protein)
chain: MQTRSKAKGRRGRPSARPSEEVEVVESQPQEALQNEEQEPRQQQQQSTDMAEPNASGFRVIQILENYGVASSDIKKLMECGFYTVESAAYAPKKAILAVKGISENKAEKIMAECAKLVPMGFTSAVAYHEARKEIIMVTTGSREVDKLLGGGIETGSITELFGEFRTGKTQLCHTLCVTCQLPISQGGAEGMALYIDTEGTFRPERLVAVAERYKLDPEDVLANVACARAFNTDHQQQLLLQASAMMAENRFALIVVDSATALYRTDYSGRNELAARQMHLGKFLRSLHNLAEEYGVAVVVTNQVVANVDGSAQMFQADSKKPIGGHIMAHASTTRLSLRKGRGEQRIIKVYDSPCLAEAEAIFGIYDDGVGDARD

What was measured:
[1] = target: the molecule itself; experiment: SEC
[2] = target: T1, LiBRCA2; experiment: EMSA
[3] = target: T2, LiBRCA2-B1; experiment: EMSA

| Binder | binding result [1] | binding result [2] | binding result [3] |
| --- | --- | --- | --- |
| B1 | binds |  |  |
| B2 |  | binds | no binding |
| B3 |  | no binding |  |
| B4 | binds |  |  |
